Experimental data published in article PMC10840721 (Developmental cell, 2022).
Read-outs that look alike come from different tables or passages of the source. Each block holds one binder with its values, some of them ahead of it.

Tests used:
NHR-23;NHR-85 [1] = target: T1, NHR-23;NHR-85 (Caenorhabditis elegans;Caenorhabditis …, UniProt P41828;Q9XUK7 1-588;1-514, |); assay: EMSA
T1 sequence 1: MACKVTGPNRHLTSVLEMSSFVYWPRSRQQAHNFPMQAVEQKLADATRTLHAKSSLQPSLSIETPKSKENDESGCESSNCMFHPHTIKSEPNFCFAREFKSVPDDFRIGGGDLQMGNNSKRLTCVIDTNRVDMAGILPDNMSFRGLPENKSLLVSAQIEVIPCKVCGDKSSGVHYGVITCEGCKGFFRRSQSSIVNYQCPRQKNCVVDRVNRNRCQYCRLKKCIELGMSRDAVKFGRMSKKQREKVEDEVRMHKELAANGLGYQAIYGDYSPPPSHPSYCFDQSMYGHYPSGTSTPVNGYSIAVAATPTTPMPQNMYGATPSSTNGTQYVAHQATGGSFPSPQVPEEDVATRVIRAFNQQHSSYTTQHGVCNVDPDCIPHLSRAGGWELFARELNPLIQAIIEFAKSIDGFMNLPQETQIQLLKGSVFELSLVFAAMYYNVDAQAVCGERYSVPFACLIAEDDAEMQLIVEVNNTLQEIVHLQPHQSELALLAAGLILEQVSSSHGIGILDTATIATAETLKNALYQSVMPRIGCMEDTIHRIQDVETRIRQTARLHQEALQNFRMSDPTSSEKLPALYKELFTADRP
T1 sequence 2: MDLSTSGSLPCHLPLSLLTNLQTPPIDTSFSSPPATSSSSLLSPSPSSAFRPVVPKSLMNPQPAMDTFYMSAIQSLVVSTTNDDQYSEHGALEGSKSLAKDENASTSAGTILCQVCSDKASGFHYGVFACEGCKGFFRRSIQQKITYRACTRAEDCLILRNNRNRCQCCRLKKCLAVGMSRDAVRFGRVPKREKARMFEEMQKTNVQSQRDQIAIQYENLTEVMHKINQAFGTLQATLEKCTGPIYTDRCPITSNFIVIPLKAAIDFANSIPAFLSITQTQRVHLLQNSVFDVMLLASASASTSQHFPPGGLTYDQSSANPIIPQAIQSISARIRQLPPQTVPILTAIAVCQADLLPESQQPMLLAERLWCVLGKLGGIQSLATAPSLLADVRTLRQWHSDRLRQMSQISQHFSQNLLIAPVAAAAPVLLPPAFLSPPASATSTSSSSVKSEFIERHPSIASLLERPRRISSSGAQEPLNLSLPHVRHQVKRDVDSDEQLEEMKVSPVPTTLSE

[2] = target: T2, NHR-23 (recombinant, Strep-SUMO tag cleaved) (C. elegans, UniProt P41828 1-588); assay: MST
T2 sequence (looked up): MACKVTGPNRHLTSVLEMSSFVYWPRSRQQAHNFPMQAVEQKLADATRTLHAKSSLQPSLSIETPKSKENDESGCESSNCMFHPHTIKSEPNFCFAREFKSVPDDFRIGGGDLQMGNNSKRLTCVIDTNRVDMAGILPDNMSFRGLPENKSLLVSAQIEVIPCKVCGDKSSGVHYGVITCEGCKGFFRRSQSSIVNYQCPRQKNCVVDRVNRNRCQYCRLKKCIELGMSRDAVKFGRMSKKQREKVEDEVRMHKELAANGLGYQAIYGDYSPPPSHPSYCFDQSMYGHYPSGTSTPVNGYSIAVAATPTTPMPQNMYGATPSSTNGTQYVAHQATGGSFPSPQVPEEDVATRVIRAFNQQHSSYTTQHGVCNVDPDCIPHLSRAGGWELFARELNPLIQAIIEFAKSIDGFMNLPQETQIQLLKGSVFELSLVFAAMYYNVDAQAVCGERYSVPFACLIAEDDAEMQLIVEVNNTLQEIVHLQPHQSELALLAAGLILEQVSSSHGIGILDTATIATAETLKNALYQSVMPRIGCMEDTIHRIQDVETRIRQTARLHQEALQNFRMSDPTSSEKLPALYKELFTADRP

NHR-23;NHR-85 [3] = target: T1, NHR-23;NHR-85; assay: EMSA; remark: listed apart in the source
NHR-23;NHR-85 [4] = target: T1, NHR-23;NHR-85; assay: EMSA; remark: listed apart in the source

B1: Mut_DR1 (dsDNA)
DNA 1: ACAAATTGACCTGTGTCGGTCAGTA
DNA 2: ACTGACCGACACAGGTCAATTTGT
binding result (NHR-23;NHR-85 [1]): no binding

Kd [2]: 5.8 nM
B2: Strep2-NHR-85 (natural protein, C. elegans, UniProt Q9XUK7 1-514, looked up)
chain: MDLSTSGSLPCHLPLSLLTNLQTPPIDTSFSSPPATSSSSLLSPSPSSAFRPVVPKSLMNPQPAMDTFYMSAIQSLVVSTTNDDQYSEHGALEGSKSLAKDENASTSAGTILCQVCSDKASGFHYGVFACEGCKGFFRRSIQQKITYRACTRAEDCLILRNNRNRCQCCRLKKCLAVGMSRDAVRFGRVPKREKARMFEEMQKTNVQSQRDQIAIQYENLTEVMHKINQAFGTLQATLEKCTGPIYTDRCPITSNFIVIPLKAAIDFANSIPAFLSITQTQRVHLLQNSVFDVMLLASASASTSQHFPPGGLTYDQSSANPIIPQAIQSISARIRQLPPQTVPILTAIAVCQADLLPESQQPMLLAERLWCVLGKLGGIQSLATAPSLLADVRTLRQWHSDRLRQMSQISQHFSQNLLIAPVAAAAPVLLPPAFLSPPASATSTSSSSVKSEFIERHPSIASLLERPRRISSSGAQEPLNLSLPHVRHQVKRDVDSDEQLEEMKVSPVPTTLSE
modifications: AlexaFluor647 NHS Ester label (in the microscale thermophoresis assay only)

B3: wtLIN-4_23_85 (PCE direct repeat, 25 bp) (dsDNA)
DNA 1: ACAAATTGAGGTCAGTCGGTCAGTA
DNA 2: TACTGACCGACTGACCTCAATTTGT
binding result (NHR-23;NHR-85 [3]): binds

B4: Proximal (25 bp) (dsDNA)
DNA 1: CGAAGCGACCGAATGACCCAGTCTC
DNA 2: GAGACTGGGTCATTCGGTCGCTTCG
binding result (NHR-23;NHR-85 [4]): binds

B5: Mut_DR2 (dsDNA)
DNA 1: ACAAATTGAGGTCAGTCCCTGTCTA
DNA 2: TAGACAGGGACTGACCTCAATTTGT
binding result (NHR-23;NHR-85 [1]): no binding
